# According to IntAct's records for PubMed 31515488:
# B1: N-chimaerin (Homo sapiens), P15882 (parent)
# chain: MALTLFDTDEYRPPVWKSYLYQLQQEAPHPRRITCTCEVENRPKYYGREFHGMISREAADQLLIVAEGSYLIRESQRQPGTYTLALRFGSQTRNFRLYYDGKHFVGEKRFESIHDLVTDGLITLYIETKAAEYIAKMTINPIYEHVGYTTLNREPAYKKHMPVLKETHDERDSTGQDGVSEKRLTSLVRRATLKENEQIPKYEKIHNFKVHTFRGPHWCEYCANFMWGLIAQGVKCADCGLNVHKQCSKMVPNDCKPDLKHVKKVYSCDLTTLVKAHTTKRPMVVDMCIREIESRGLNSEGLYRVSGFSDLIEDVKMAFDRDGEKADISVNMYEDINIITGALKLYFRDLPIPLITYDAYPKFIESAKIMDPDEQLETLHEALKLLPPAHCETLRYLMAHLKRVTLHEKENLMNAENLGIVFGPTLMRSPELDAMAALNDIRYQRLVVELLIKNEDILF
# B2: Centrosomal protein of 55 kDa (Homo sapiens), Q53EZ4 (parent)
# chain: MSSRSTKDLIKSKWGSKPSNSKSETTLEKLKGEIAHLKTSVDEITSGKGKLTDKERHRLLEKIRVLEAEKEKNAYQLTEKDKEIQRLRDQLKARYSTTTLLEQLEETTREGERREQVLKALSEEKDVLKQQLSAATSRIAELESKTNTLRLSQTVAPNCFNSSINNIHEMEIQLKDALEKNQQWLVYDQQREVYVKGLLAKIFELEKKTETAAHSLPQQTKKPESEGYLQEEKQKCYNDLLASAKKDLEVERQTITQLSFELSEFRRKYEETQKEVHNLNQLLYSQRRADVQHLEDDRHKTEKIQKLREENDIARGKLEEEKKRSEELLSQVQFLYTSLLKQQEEQTRVALLEQQMQACTLDFENEKLDRQHVQHQLHVILKELRKARNQITQLESLKQLHEFAITEPLVTFQGETENREKVAASPKSPTAALNESLVECPKCNIQYPATEHRDLLVHVEYCSK
# partner: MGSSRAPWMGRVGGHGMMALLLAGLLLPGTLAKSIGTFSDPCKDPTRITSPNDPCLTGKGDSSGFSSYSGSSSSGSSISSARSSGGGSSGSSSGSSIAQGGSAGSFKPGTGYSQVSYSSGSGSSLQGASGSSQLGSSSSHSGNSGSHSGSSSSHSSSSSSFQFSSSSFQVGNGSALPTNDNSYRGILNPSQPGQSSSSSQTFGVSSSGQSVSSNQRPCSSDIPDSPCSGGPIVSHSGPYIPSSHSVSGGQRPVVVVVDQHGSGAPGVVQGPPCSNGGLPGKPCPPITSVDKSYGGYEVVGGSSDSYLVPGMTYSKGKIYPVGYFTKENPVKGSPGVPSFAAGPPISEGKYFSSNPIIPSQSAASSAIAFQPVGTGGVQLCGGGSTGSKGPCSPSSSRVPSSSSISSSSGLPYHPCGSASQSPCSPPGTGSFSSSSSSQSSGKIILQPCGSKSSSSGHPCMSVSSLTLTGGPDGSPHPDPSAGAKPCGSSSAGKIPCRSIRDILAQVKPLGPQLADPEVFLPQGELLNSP
# B3: Notch homolog 2 N-terminal-like protein A (Homo sapiens), Q7Z3S9 (parent)
# chain: MCVTYHNGTGYCKCPEGFLGEYCQHRDPCEKNRCQNGGTCVAQAMLGKATCRCASGFTGEDCQYSTSHPCFVSRPCLNGGTCHMLSRDTYECTCQVGFTGKECQWTDACLSHPCANGSTCTTVANQFSCKCLTGFTGQKCETDVNECDIPGHCQHGGTCLNLPGSYQCQCLQGFTGQYCDSLYVPCAPSPCVNGGTCRQTGDFTFECNCLPETVRRGTELWERDREVWNGKEHDEN
# partner: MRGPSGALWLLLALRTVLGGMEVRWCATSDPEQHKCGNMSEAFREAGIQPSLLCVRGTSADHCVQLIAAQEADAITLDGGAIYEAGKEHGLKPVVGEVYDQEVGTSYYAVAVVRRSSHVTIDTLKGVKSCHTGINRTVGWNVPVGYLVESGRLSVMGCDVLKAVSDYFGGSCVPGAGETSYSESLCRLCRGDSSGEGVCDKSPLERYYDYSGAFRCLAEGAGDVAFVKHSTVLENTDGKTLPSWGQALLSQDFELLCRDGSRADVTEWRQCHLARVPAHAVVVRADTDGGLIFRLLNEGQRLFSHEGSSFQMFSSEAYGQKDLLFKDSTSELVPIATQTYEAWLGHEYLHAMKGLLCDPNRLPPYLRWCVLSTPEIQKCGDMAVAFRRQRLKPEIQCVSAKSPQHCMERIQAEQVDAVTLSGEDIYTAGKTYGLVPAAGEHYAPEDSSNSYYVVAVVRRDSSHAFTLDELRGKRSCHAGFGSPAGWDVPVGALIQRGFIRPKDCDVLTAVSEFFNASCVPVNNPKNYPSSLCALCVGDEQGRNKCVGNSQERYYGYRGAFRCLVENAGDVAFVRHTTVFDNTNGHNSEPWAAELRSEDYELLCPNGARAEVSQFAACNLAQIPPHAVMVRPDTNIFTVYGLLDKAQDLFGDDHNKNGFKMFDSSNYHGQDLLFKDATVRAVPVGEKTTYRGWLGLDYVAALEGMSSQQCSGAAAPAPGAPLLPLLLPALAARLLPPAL
# B4: PiggyBac transposable element-derived protein 1 (Homo sapiens), Q96JS3 (parent)
# chain: MYEALPGPAPENEDGLVKVKEEDPTWEQVCNSQEGSSHTQEICRLRFRHFCYQEAHGPQEALAQLRELCHQWLRPEMHTKEQIMELLVLEQFLTILPKELQPCVKTYPLESGEEAVTVLENLETGSGDTGQQASVYIQGQDMHPMVAEYQGVSLECQSLQLLPGITTLKCEPPQRPQGNPQEVSGPVPHGSAHLQEKNPRDKAVVPVFNPVRSQTLVKTEEETAQAVAAEKWSHLSLTRRNLCGNSAQETVMSLSPMTEEIVTKDRLFKAKQETSEEMEQSGEASGKPNRECAPQIPCSTPIATERTVAHLNTLKDRHPGDLWARMHISSLEYAAGDITRKGRKKDKARVSELLQGLSFSGDSDVEKDNEPEIQPAQKKLKVSCFPEKSWTKRDIKPNFPSWSALDSGLLNLKSEKLNPVELFELFFDDETFNLIVNETNNYASQKNVSLEVTVQEMRCVFGVLLLSGFMRHPRREMYWEVSDTDQNLVRDAIRRDRFELIFSNLHFADNGHLDQKDKFTKLRPLIKQMNKNFLLYAPLEEYYCFDKSMCECFDSDQFLNGKPIRIGYKIWCGTTTQGYLVWFEPYQEESTMKVDEDPDLGLGGNLVMNFADVLLERGQYPYHLCFDSFFTSVKLLSALKKKGVRATGTIRENRTEKCPLMNVEHMKKMKRGYFDFRIEENNEIILCRWYGDGIISLCSNAVGIEPVNEVSCCDADNEEIPQISQPSIVKVYDECKEGVAKMDQIISKYRVRIRSKKWYSILVSYMIDVAMNNAWQLHRACNPGASLDPLDFRRFVAHFYLEHNAHLSD
# Variants of: B1
# Conditions: with nck2_human NCK2, O43639
# nck2_human NCK2, O43639, sequence (O43639 whole entry): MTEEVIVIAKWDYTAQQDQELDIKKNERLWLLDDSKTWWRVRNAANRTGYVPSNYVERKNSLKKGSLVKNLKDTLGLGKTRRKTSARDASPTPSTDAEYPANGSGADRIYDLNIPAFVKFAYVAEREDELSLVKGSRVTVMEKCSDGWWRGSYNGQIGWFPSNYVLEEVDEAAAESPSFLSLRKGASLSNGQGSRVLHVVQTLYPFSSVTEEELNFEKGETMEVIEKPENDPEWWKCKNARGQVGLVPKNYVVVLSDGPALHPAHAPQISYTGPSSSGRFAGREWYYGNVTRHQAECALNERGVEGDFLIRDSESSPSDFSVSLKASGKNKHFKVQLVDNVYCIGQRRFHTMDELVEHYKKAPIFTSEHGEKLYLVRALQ
row,Variant,effect of a mutation on the interaction
1,MALTLFDTDEYRPPVWKSYLYQLQQEAPHPRRITCTCEVENRPKYYGREFHGMISREAADQLLIVAEGSYLIRESQRQPGTYTLALRFGSQTRNFRLYYDGKHFVGEKRFESIHNLVTDGLITLYIETKAAEYIAKMTINPIYEHVGYTTLNREPAYKKHMPVLKETHDERDSTGQDGVSEKRLTSLVRRATLKENEQIPKYEKIHNFKVHTFRGPHWCEYCANFMWGLIAQGVKCADCGLNVHKQCSKMVPNDCKPDLKHVKKVYSCDLTTLVKAHTTKRPMVVDMCIREIESRGLNSEGLYRVSGFSDLIEDVKMAFDRDGEKADISVNMYEDINIITGALKLYFRDLPIPLITYDAYPKFIESAKIMDPDEQLETLHEALKLLPPAHCETLRYLMAHLKRVTLHEKENLMNAENLGIVFGPTLMRSPELDAMAALNDIRYQRLVVELLIKNEDILF [D115N],with no effect

# Variants of: B2
# Conditions: with cdsn_human CDSN
row,Variant,effect of a mutation on the interaction
1,MSSRSTKDLIKSKWGSKPSNSKSETTLEKLKGEIAHLKTSVDEITSGKGKLTDKERQRLLEKIRVLEAEKEKNAYQLTEKDKEIQRLRDQLKARYSTTTLLEQLEETTREGERREQVLKALSEEKDVLKQQLSAATSRIAELESKTNTLRLSQTVAPNCFNSSINNIHEMEIQLKDALEKNQQWLVYDQQREVYVKGLLAKIFELEKKTETAAHSLPQQTKKPESEGYLQEEKQKCYNDLLASAKKDLEVERQTITQLSFELSEFRRKYEETQKEVHNLNQLLYSQRRADVQHLEDDRHKTEKIQKLREENDIARGKLEEEKKRSEELLSQVQFLYTSLLKQQEEQTRVALLEQQMQACTLDFENEKLDRQHVQHQLHVILKELRKARNQITQLESLKQLHEFAITEPLVTFQGETENREKVAASPKSPTAALNESLVECPKCNIQYPATEHRDLLVHVEYCSK [H57Q],with no effect
2,MSSRSTKDLIKSKWGSKPSNSKSETTLEKLKGEIAHLKTSVDEITSGKGKLTDKERHRLLEKIRVLEAEKEKNAYQLTEKDKEIQRLRDQLKARYSTTTLLEQLEETTREGERREQVLKALSEEKDVLKQQLSAATSRIAELESKTNTLRLSQTVAPNCFNSSINNIHEMEIQLKDALEKNQQWLVYDQQREVYVKGLLAKIFELEKKTETAAHSLPQQTKKPESEGYLQEEKQKCYNDLLASAKKDLEVERQTITQLSFELSEFRRKYEETQKEVHNLNQLLYSQRRADVQHLEDDRHKTEKIQKLREENDIARGKLEEEKKRSEELLSQVQFLYTSLLKQQEEQTKVALLEQQMQACTLDFENEKLDRQHVQHQLHVILKELRKARNQITQLESLKQLHEFAITEPLVTFQGETENREKVAASPKSPTAALNESLVECPKCNIQYPATEHRDLLVHVEYCSK [R348K],with no effect
3,MSSRSTKDLIKSKWGSKPSNSKSETTLEKLKGEIAHLKTSVDEITSGKGKLTDKERHRLLEKIRVLEAEKEKNAYQLTEKDKEIQRLRDQLKARYSTTTLLEQLEETTREGERREQVLKALSEEKDVLKQQLSAATSRIAELESKTNTLRLSQTVAPNCFNSSINNIHEMEIQLKDALEKNQQWLVYDQQREVYVKGLLAKIFELEKKTETAAHSLPQQTKKPESEGYLQEEKQKRYNDLLASAKKDLEVERQTITQLSFELSEFRRKYEETQKEVHNLNQLLYSQRRADVQHLEDDRHKTEKIQKLREENDIARGKLEEEKKRSEELLSQVQFLYTSLLKQQEEQTRVALLEQQMQACTLDFENEKLDRQHVQHQLHVILKELRKARNQITQLESLKQLHEFAITEPLVTFQGETENREKVAASPKSPTAALNESLVECPKCNIQYPATEHRDLLVHVEYCSK [C236R],with no effect
4,MSSRSTKDLIKSKWGSKPSNSKSETTLEKLKGEIAHLKTSVDEITSGKGKLTDKERHRLLEKIRVLEAEKEKNAYQLTEKDKEIQRLRDQLKARYSTTTLLEQLEETTREGERREQVLKALSEEKDVLKQQLSAATSRIAELESKTNTLRLSQTVAPNCFNSSINNIHEMEIQLKDALEKNQQWLVYDQQREVYVKGLLAKIFELEKKTETAAHSLPQQTKKPESEGYLQEEKQKCYNDLLASPKKDLEVERQTITQLSFELSEFRRKYEETQKEVHNLNQLLYSQRRADVQHLEDDRHKTEKIQKLREENDIARGKLEEEKKRSEELLSQVQFLYTSLLKQQEEQTRVALLEQQMQACTLDFENEKLDRQHVQHQLHVILKELRKARNQITQLESLKQLHEFAITEPLVTFQGETENREKVAASPKSPTAALNESLVECPKCNIQYPATEHRDLLVHVEYCSK [A244P],with no effect

# Variants of: B3
# Conditions: with trfm_human MELTF
row,Variant,effect of a mutation on the interaction
1,R74Q,with no effect
2,A115T,with no effect

# Variants of: B4
# Conditions: with traf2_human TRAF2, Q12933
# traf2_human TRAF2, Q12933, sequence (Q12933 whole entry): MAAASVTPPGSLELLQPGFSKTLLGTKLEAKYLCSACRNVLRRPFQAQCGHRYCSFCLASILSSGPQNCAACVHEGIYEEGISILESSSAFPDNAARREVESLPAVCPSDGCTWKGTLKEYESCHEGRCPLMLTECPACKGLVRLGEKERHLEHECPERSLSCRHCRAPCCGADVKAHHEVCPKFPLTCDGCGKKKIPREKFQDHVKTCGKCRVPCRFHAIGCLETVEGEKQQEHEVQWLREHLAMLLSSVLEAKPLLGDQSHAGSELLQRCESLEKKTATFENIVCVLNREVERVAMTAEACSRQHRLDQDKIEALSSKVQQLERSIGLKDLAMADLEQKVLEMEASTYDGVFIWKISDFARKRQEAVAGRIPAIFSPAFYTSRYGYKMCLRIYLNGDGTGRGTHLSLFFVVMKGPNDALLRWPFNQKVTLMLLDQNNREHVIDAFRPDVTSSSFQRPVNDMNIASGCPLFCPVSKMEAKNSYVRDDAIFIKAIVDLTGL
row,Variant,effect of a mutation on the interaction
1,I678V,with no effect
2,P256L,with no effect
3,Q248E,disrupting interaction strength
4,G244E,disrupting interaction strength
5,N398S,with no effect

# Variants of: B4
# Conditions: with zsc22_human ZSCAN22, P10073
# zsc22_human ZSCAN22, P10073, sequence (P10073 whole entry): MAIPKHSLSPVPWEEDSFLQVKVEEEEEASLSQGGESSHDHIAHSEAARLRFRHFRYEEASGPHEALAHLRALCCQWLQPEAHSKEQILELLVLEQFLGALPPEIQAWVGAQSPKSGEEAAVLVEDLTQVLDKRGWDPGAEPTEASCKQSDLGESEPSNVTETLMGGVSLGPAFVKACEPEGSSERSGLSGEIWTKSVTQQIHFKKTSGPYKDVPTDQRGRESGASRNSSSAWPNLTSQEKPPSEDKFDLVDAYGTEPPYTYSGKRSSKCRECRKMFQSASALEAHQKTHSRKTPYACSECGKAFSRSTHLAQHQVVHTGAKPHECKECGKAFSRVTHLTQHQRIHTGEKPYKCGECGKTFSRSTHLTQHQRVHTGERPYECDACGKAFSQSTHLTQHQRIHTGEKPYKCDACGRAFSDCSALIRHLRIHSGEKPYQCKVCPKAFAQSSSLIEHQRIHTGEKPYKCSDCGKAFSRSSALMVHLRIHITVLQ
row,Variant,effect of a mutation on the interaction
1,I678V,with no effect
2,P256L,disrupting interaction strength
3,Q248E,with no effect
4,G244E,with no effect
5,N398S,with no effect

# Variants of: B4
# Conditions: with zn446_human ZNF446, Q9NWS9
# zn446_human ZNF446, Q9NWS9, sequence (Q9NWS9 whole entry): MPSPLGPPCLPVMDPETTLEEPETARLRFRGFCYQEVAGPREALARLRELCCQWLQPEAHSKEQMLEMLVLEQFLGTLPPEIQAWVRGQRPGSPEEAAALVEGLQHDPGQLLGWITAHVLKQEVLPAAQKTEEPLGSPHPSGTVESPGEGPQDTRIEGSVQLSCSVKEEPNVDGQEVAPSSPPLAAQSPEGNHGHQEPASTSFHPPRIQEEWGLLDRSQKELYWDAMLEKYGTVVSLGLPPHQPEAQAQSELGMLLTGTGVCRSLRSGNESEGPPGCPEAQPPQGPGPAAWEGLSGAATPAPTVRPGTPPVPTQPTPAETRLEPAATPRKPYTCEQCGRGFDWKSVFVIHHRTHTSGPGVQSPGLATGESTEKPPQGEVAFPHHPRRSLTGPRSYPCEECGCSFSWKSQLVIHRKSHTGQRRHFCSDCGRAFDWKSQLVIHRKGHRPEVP
row,Variant,effect of a mutation on the interaction
1,I678V,with no effect
2,P256L,disrupting interaction strength
3,Q248E,with no effect
4,G244E,with no effect
5,N398S,with no effect

# Variants of: B4
# Conditions: with znf24_human ZNF24, P17028
# znf24_human ZNF24, P17028, sequence (P17028 whole entry): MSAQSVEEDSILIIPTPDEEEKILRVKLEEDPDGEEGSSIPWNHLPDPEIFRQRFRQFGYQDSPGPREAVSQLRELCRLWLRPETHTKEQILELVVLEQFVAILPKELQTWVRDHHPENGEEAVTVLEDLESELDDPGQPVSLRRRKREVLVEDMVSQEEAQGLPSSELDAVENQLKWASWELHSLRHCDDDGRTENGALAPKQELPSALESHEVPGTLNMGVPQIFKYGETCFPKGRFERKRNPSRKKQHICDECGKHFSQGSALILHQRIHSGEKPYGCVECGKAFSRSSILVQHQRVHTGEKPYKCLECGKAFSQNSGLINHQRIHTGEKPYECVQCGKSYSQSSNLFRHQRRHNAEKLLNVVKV
row,Variant,effect of a mutation on the interaction
1,I678V,with no effect
2,T25A,with no effect
